Measured values from PMC2821528 (Molecular Microbiology, 2009).
Where two headings read alike, the source gives them in different places.

Experiments:
TolB (Escherichia coli) [1] = target: TolB (Escherichia coli) (UniProt P0A855); settings: cited from earlier work
TolB (Escherichia coli) [2] = target: TolB (Escherichia coli) (UniProt P0A855); settings: cited from earlier work; remark: listed apart in the source
TolB (E. coli) [3] = target: TolB (E. coli) (UniProt P0A855); experiment: SPR
TolB (E. coli) [4] = target: TolB (E. coli) (UniProt P0A855); experiment: SPR; remark: listed apart in the source
Pal (Escherichia coli) = Pal (Escherichia coli) (UniProt P0A912); settings: cited from earlier work
TolB = TolB (E. coli, UniProt P0A855 22-430); experiment: SEC

Colicin E9 (from UniProt P09883)
Kd (TolB (Escherichia coli) [1]): 0.09 µM
Kd (TolB (Escherichia coli) [2]): 1 µM

TA_(1–107), 107-residue peptide of the translocation domain of colicin A (domain or fragment)
Kd (TolB (E. coli) [3]): 24.3 µM
Kd (TolB (E. coli) [4]): 1.6 µM

TolB (from UniProt P0A855)
Kd (Pal (Escherichia coli)): 0.09 µM

B1: Pal, soluble periplasmic domain (residues 65–173) (domain or fragment, E. coli, UniProt P0A912 65-173, looked up)
chain: LQQNNIVYFDLDKYDIRSDFAQMLDAHANFLRSNPSYKVTVEGHADERGTPEYNISLGERRANAVKMYLQGKGVSADQISIVSYGKEKPAVLGHDEAAYSKNRRAVLVY
binding result (TolB): binds
